B1: 531_1L2_variant3 Fab (Fab, V domains shown)
VH: EVQLLESGGGLVQPGGSLRLSCAASGYTFTRYWLNWVRQAPGKGLEWIGMIDPSVSETHYADSVKGRATLSVDKSKNTAYLQMNSLRAEDTAVYYCSQIRLPYYYAMDSWGQGTTVTVSS
VL: DIQMTQSPSSLSASVGDRVTITCRASQDINSFLNWYQQKPGKAVKLLIYYTSRLQSGVPSRFSGSGSGTDYTLTISSLQPEDFATYFCQQGNTLPRTFGGGTKVEIK
notes: Humanized Fab; The His-tag was removed with TEV protease before SPR
B2: 531_1L2_variant21 Fab (Fab, V domains shown)
VH: QVQLVQSGAEVKKPGASVKVSCKASGYTFTRYYLNWVRQAPGQGLEWIGMIDPSVSETHYAQKFQGRATLTVDKSTSTAYMELSSLRSEDTAVYYCSQIRLPYYYAMDSWGQGTTVTVSS
VL: B1 VL with N30S
notes: as for B1
B3: 531_1L2_variant4 Fab (Fab, V domains shown)
VH: B1 VH with W33Y
VL: B1 VL
notes: as for B1
B4: 531_1L2_variant24 Fab (Fab, V domains shown)
VH: B2 VH
VL: B1 VL with N30S, Y71F
notes: as for B1
B5: 531_1L2_variant16 Fab (Fab, V domains shown)
VH: B2 VH
VL: B1 VL
notes: as for B1
B6: 531_1L2_variant17 Fab (Fab, V domains shown)
VH: B2 VH with G26D, Y33W
VL: B1 VL with N30S
notes: as for B1
B7: 531_1L2_variant6 Fab (Fab, V domains shown)
VH: B1 VH
VL: B1 VL with N30S
notes: as for B1
B8: 531_1L2_variant8 Fab (Fab, V domains shown)
VH: B1 VH with W33Y
VL: B1 VL with N30S
notes: as for B1
B9: 531_1L2_variant14 Fab (Fab, V domains shown)
VH: B2 VH with G26D, Y33W, I48M, A68V, L70M, V72R, K74T, A79V
VL: B1 VL
notes: as for B1
B10: anti-TfR 531v25-Fab-LC-GAA (Fab)
heavy: QVQLVQSGAEVKKPGASVKVSCKASGYTFTRYYLNWVRQAPGQGLEWIGMIDPSVSETHYAQKFQGRATLTVDKSTSTAYMELSSLRSEDTAVYYCSQIRLPYYYAMDSWGQGTTVTVSSASTKGPSVFPLAPSSKSTSGGTAALGCLVKDYFPEPVTVSWNSGALTSGVHTFPAVLQSSGLYSLSSVVTVPSSSLGTQTYICNVNHKPSNTKVDKKVEPKSC
light: not shown
notes: Fab with human GAA fused to the C-terminus of the light chain; also called 531v25Fab-GAA
B11: anti-TfR 531v25mAb-GAA (antibody, human IgG1, kappa)
heavy 1: QVQLVQSGAEVKKPGASVKVSCKASGYTFTRYYLNWVRQAPGQGLEWIGMIDPSVSETHYAQKFQGRATLTVDKSTSTAYMELSSLRSEDTAVYYCSQIRLPYYYAMDSWGQGTTVTVSSASTKGPSVFPLAPSSKSTSGGTAALGCLVKDYFPEPVTVSWNSGALTSGVHTFPAVLQSSGLYSLSSVVTVPSSSLGTQTYICNVNHKPSNTKVDKKVEPKSCDKTHTCPPCPAPELLGGPSVFLFPPKPKDTLMISRTPEVTCVVVDVSHEDPEVKFNWYVDGVEVHNAKTKPREEQYNNASRVVSVLTVLHQDWLNGKEYKCKVSNKALPAPIEKTISKAKGQPREPQVCTLPPSRDELTKNQVSLSCAVKGFYPSDIAVEWESNGQPENNYKTTPPVLDSDGSFFLVSKLTVDKSRWQQGNVFSCSVMHEALHNRFTQKSLSLSPG
heavy 2: not shown
light: not shown

Changes are numbered by the printed parent chain.

Sequence of His-tagged mouse TfR ectodomain (mTFRC_89_764; mature protein) (Q62351 other isoform, or with tags, fused parts or gaps): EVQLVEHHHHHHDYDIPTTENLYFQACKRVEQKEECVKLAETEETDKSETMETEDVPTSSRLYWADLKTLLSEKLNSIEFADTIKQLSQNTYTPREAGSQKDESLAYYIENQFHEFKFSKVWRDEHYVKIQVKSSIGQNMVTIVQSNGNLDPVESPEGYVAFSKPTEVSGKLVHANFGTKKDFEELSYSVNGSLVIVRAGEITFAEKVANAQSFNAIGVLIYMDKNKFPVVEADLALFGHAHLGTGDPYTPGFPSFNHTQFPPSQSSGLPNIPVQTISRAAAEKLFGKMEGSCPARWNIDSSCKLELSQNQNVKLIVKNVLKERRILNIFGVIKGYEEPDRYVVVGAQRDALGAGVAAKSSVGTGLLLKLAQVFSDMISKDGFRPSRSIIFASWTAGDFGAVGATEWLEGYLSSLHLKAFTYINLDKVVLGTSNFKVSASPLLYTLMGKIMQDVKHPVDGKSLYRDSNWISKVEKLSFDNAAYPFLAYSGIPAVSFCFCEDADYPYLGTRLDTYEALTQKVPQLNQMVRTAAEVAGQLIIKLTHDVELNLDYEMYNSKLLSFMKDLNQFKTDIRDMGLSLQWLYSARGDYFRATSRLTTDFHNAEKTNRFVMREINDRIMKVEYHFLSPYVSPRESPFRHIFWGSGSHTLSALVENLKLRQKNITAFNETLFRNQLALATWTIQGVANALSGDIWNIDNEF
T4 sequence (P02786 89-760 G142S): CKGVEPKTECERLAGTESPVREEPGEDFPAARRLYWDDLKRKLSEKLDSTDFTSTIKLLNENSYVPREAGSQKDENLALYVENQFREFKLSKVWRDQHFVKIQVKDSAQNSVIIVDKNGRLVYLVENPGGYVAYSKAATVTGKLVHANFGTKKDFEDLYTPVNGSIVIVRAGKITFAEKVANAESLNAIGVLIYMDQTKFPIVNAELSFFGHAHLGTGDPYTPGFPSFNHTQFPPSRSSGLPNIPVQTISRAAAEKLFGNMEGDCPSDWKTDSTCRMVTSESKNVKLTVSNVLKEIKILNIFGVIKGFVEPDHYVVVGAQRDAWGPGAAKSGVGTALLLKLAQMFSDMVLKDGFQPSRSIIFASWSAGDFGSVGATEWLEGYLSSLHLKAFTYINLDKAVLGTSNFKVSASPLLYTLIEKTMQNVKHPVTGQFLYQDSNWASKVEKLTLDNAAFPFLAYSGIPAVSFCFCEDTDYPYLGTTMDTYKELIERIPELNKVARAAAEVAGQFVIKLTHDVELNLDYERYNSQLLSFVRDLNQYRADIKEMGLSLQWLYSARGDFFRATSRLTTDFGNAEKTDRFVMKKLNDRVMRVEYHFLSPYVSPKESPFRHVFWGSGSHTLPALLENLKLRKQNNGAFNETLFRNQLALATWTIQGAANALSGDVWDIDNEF

The target in one assay is T1, His-tagged cynomolgus monkey TfR ectodomain (cyTFRC_89_760; mature protein) (cynomolgus monkey (Macaca fascicularis), UniProt Q5RDH6 89-760 (Pongo abelii entry)).
T1 construct: also called cTfR; cTfR ectodomain
T1 chain: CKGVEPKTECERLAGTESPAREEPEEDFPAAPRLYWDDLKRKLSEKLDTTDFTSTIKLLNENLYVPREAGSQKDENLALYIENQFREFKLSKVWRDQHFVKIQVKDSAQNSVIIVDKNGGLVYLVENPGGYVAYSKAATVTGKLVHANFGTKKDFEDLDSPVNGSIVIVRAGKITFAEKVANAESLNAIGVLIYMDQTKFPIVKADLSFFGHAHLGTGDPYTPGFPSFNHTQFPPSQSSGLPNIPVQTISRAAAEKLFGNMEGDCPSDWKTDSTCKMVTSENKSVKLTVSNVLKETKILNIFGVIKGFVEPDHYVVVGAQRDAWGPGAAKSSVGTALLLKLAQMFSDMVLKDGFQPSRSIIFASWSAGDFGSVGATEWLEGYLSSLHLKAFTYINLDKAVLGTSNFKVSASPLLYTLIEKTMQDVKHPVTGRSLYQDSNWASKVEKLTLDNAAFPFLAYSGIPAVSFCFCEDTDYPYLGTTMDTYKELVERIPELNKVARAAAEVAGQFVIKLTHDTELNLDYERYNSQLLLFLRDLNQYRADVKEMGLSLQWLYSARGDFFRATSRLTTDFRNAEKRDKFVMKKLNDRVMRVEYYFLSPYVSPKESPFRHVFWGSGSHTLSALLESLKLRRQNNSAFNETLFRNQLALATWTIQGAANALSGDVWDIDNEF
In words: SPR; KD on cTfR against KD on hTfR. The protocol:
(§1) Binding of the humanized Fab variants to human, cynomolgus and mouse TfR was assessed using SPR at pH 7.4. Experiments were run on a Bruker MASS-2 instrument with HBS-EP+ as running buffer and sample diluent (Cytiva Life Sciences, #BR100826). HCA sensor chips (Bruker, #1862614) were immobilized with anti-His antibody (His capture kit, Cytiva Life Sciences, #28995056) following manufacturer's instructions. About 10,000 RU of anti-His was obtained. His-tagged hTfR ectodomain (SEQ ID NO: 39), cTfR ectodomain (SEQ ID NO: 40) or mouse TfR ectodomain (SEQ ID NO: 41) (5 μg/ml) was captured for 1 min at 10 μL/min. Concentration series of the humanized Fab variants were then injected for 4 min at 30 μL/min over hTfR surfaces and dissociation was monitored for 5 min. Surface was regenerated with one 1 min pulse of 10 mM glycine-HCl at pH 1.5.
(In general: Surface plasmon resonance follows binding to a sensor surface in real time, without labels.)
Regarding B1, the “Cynomolgus/human KD ratio” value is 1.1.
The same measure, in the same setting: to B2 belongs 8.3; to B3, 10.1.
For the molecule B4, the “Cynomolgus/human KD ratio” value worked out at 8.3.
As to B5, the “Cynomolgus/human KD ratio” value came to 6.9.
For the molecule B6, the “Cynomolgus/human KD ratio” value came to 4.9.
Take B7: the “Cynomolgus/human KD ratio” value is 3.9.
B8: the “Cynomolgus/human KD ratio” value is 7.8.
Take B9: the “Cynomolgus/human KD ratio” value stood at 8.7.

Another assay deals with T2, cTfR expressed on 300.19 cells (SEQ ID NO: 2) (cynomolgus monkey, UniProt Q5RDH6 1-760 (Pongo abelii entry)).
T2 construct: Murine pre-B cell line 300.19, stably transfected with a plasmid expressing cTfR; also called cynomolgus TfR; cTfR-expressing 300.19 cells
T2 chain: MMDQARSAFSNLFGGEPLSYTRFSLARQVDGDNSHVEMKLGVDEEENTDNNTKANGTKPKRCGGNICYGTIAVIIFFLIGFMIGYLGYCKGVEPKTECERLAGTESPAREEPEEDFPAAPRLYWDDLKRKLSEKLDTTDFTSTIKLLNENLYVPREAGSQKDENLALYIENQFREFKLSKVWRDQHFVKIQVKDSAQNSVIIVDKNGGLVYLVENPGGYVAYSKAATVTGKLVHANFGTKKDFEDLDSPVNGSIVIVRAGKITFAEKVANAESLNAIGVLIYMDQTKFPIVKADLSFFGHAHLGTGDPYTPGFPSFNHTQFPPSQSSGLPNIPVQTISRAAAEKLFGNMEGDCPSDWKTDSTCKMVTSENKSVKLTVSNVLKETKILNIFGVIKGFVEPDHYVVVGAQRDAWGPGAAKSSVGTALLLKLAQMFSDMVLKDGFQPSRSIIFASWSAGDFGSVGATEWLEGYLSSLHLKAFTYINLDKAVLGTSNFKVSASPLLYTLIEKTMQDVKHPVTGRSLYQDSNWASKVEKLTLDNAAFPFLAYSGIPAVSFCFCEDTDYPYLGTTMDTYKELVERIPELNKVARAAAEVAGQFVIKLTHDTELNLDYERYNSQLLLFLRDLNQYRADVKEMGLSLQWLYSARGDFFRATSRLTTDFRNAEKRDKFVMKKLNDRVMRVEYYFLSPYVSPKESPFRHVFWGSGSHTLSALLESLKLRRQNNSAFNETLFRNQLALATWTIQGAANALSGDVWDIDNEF
In words: flow cytometry on cTfR-expressing 300.19 cells. The protocol:
(§2) The binding kinetics of the four anti-TfR-GAA molecules to hTfR-expressing 300.19 cells and cTfR-expressing 300.19 cells were determined by flow cytometry. 300.19 is a murine pre-B cell line, originating from a lymphoma, and was stably transfected by nucleoporation with a plasmid expressing either hTfR or cTfR (SEQ ID NO: 1 and SEQ ID NO: 2, respectively).
(§3) 300.19 TFRC-expressing cells were coated at 5×10⁵ cells/well on 96-well High Bind plate (MSD L15XB-3) and 100 μL/well of anti-TfR-GAA molecule were added and incubated for 45 min at 4° C. and washed three times with PBS 1% BSA. […] Antibody binding was evaluated after centrifugation and resuspension of cells by adding 200 μl/well PBS 1% BSA and read using Guava® easyCyte™ 8HT Flow Cytometry System.
For orientation: Flow cytometry measures light scatter and fluorescence of single cells or particles in a stream.
Take B10: the midpoint of the response, the EC50, lay at 74.6 nM.
On to B11, for which the concentration giving a half-maximal response (EC50) (usually the concentration that produces a half-maximal response) came to 2.6 nM.

In another assay the target is T3, hTfR expressed on 300.19 cells (SEQ ID NO: 1) (human, UniProt P02786 1-760).
T3 construct: Murine pre-B cell line 300.19, stably transfected with a plasmid expressing hTfR; also called human TfR; hTfR-expressing 300.19 cells
Description: flow cytometry on hTfR-expressing 300.19 cells. The protocol:
as §2, §3
B10 had a 50% effective concentration (EC50) of 9.9 nM.
Still for that read-out and setting: to B11 belongs 2.7 nM.

Another assay deals with His-tagged mouse TfR ectodomain (mTFRC_89_764; mature protein) (mouse, UniProt Q62351 89-763). Description: SPR, His-tagged mTfR ectodomain captured on anti-His. The protocol:
as §1
In the case of B1, the binding result is given as “no binding”.
For B2, the binding result was “no binding”.
As for B3, the binding result is listed as “no binding”.
On the same count and under the same terms, the entry for B4 is “no binding”; for B5 it is “no binding”; for B6 it is “no binding”.
With B7, the binding result is listed as “no binding”.
On the same count and under the same terms, the entry for B8 is “no binding”.
Take B9: the binding result is on record as “no binding”.

A further assay has as its target T4, His-tagged human TfR ectodomain (hTFRC_89-760_G142S; mature protein) (human, UniProt P02786 89-760).
T4 construct: It carries the G142S haplotype; also called hTfR ectodomain
Description: SPR, His-tagged TfR ectodomain captured on anti-His, 1:1 fit. As for the experimental part: as §1
Regarding B1, the equilibrium dissociation constant (Kd) (as a rule, the concentration at which binding is half-saturated) was 183 nM.
In the case of B2, the dissociation constant (Kd) was found to be 3.71 nM.
For B3, the Kd amounted to 120 nM.
On the same count and under the same terms, the figure for B4 is 10.2 nM; for B5 it is 10.2 nM.
In turn, B6 came in with a Kd of 5.91 nM.
Regarding B7, binding was characterised by a dissociation constant (Kd) of 77.4 nM.
On the same count and under the same terms, to B8 belongs 61.2 nM; to B9, 8.6 nM.

The target in another assay is T1, His-tagged cynomolgus monkey TfR …. The assay is described as above. The protocol: as §1
B1 returned a dissociation constant Kd of 204 nM.
B2 had a dissociation constant (Kd) of 30.9 nM.
Still for that read-out and setting: to B3 belongs 1210 nM; to B4, 84.6 nM.
On the same count and under the same terms, the figure for B5 is 70.4 nM; for B6 it is 28.9 nM.
In turn, B7 displayed a dissociation constant (Kd) of 300 nM.
Molecule B8 returned an equilibrium dissociation constant (Kd) of 475 nM.
Take B9: binding was characterised by a dissociation constant (Kd) of 75.1 nM.

The target of another assay is T2, cTfR expressed on 300.19 cells (SEQ ID …). In words: flow cytometry; EC50 on cTfR cells against EC50 on hTfR cells. As for the experimental part: as §2, §3
Regarding B10, the “Cynomolgus/human ratio (TfR)” value came to 7.5.
In the case of B11, the “Cynomolgus/human ratio (TfR)” value was 1.

Values taken from patent US20240226314A1 (Sanofi, published 2024).
